Test results taken from the supplement of paper PMC9112550, “Optimization of the antimicrobial peptide Bac7 by deep mutational scanning” (BMC Biology, 2022).

These sequences were tested on Escherichia coli TOP10 (assay: shrunken log2 fold change of peptide-encoding DNA abundance (4.5 h post-induction vs induction); higher = less antimicrobial activity (less host growth inhibition)). Settings: time post-induction: 4.5 h; library: site-saturation at positions 5, 18, 19, 20.
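Also: peptides expressed intracellularly from a pBAD plasmid library in pooled LB shake-flask culture, induced with 0.3% L-arabinose, DNA abundance read by NGS, three biological replicates, DESeq2 with apeglm shrinkage.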

Sequence | shrunken log2 fold change
RRIRRRPPRLPRPRPRPGDAPRP | 0.782
RRIRRRPPRLPRPRPRPGDEPRP | -0.0622
RRIRRRPPRLPRPRPRPGDKPRP | -0.292
RRIRRRPPRLPRPRPRPGDNPRP | 0.169
RRIRRRPPRLPRPRPRPGDVPRP | 0.249
RRIRRRPPRLPRPRPRPGEKPRP | 0.0687
RRIRRRPPRLPRPRPRPGEWPRP | 0.701
RRIRRRPPRLPRPRPRPGFYPRP | -0.107
RRIRRRPPRLPRPRPRPGGNPRP | 0.475
RRIRRRPPRLPRPRPRPGIEPRP | -0.0777
RRIRRRPPRLPRPRPRPGIQPRP | 0.0906
RRIRRRPPRLPRPRPRPGKAPRP | 0.112
RRIRRRPPRLPRPRPRPGMVPRP | 0.308
RRIRRRPPRLPRPRPRPGNNPRP | -0.365
RRIRRRPPRLPRPRPRPGNRPRP | -0.151
RRIRRRPPRLPRPRPRPGPCPRP | 0.0678
RRIRRRPPRLPRPRPRPGPFPRP | 0.162
RRIRRRPPRLPRPRPRPGQLPRP | 0.0163
RRIRRRPPRLPRPRPRPGSSPRP | 0.103
RRIRRRPPRLPRPRPRPGTQPRP | 0.0536
RRIRRRPPRLPRPRPRPGTWPRP | 0.0793
RRIRRRPPRLPRPRPRPGVEPRP | 0.99
RRIRRRPPRLPRPRPRPGWDPRP | 0.0298
RRIRRRPPRLPRPRPRPGWTPRP | 0.326
RRIRRRPPRLPRPRPRPGYFPRP | -0.209

Sequence | shrunken log2 fold change
RRIRRRPPRLPRPRPRPGYLPRP | -0.12
RRIRRRPPRLPRPRPRPHADPRP | 0.573
RRIRRRPPRLPRPRPRPHAQPRP | 0.0722
RRIRRRPPRLPRPRPRPHCDPRP | -0.164
RRIRRRPPRLPRPRPRPHDQPRP | 0.0964
RRIRRRPPRLPRPRPRPHDRPRP | 0.103
RRIRRRPPRLPRPRPRPHFQPRP | -0.0173
RRIRRRPPRLPRPRPRPHHLPRP | -0.0855
RRIRRRPPRLPRPRPRPHIPPRP | -0.126
RRIRRRPPRLPRPRPRPHKRPRP | 0.124
RRIRRRPPRLPRPRPRPHMCPRP | -0.0222
RRIRRRPPRLPRPRPRPHNDPRP | 1.99
RRIRRRPPRLPRPRPRPHNYPRP | 0.103
RRIRRRPPRLPRPRPRPHPQPRP | 0.268
RRIRRRPPRLPRPRPRPHQDPRP | 0.0414
RRIRRRPPRLPRPRPRPHQTPRP | 0.17
RRIRRRPPRLPRPRPRPHRKPRP | -0.247
RRIRRRPPRLPRPRPRPHTKPRP | 0.179
RRIRRRPPRLPRPRPRPHWYPRP | -0.404
RRIRRRPPRLPRPRPRPIAKPRP | 0.252
RRIRRRPPRLPRPRPRPICTPRP | 0.391
RRIRRRPPRLPRPRPRPIDYPRP | -0.029
RRIRRRPPRLPRPRPRPIEHPRP | -0.00775
RRIRRRPPRLPRPRPRPIELPRP | -0.192
RRIRRRPPRLPRPRPRPIERPRP | 0.0771

Sequence | shrunken log2 fold change
RRIRRRPPRLPRPRPRPIFQPRP | 0.303
RRIRRRPPRLPRPRPRPIGPPRP | 0.147
RRIRRRPPRLPRPRPRPIHYPRP | -0.359
RRIRRRPPRLPRPRPRPIICPRP | 0.0738
RRIRRRPPRLPRPRPRPIKKPRP | 0.907
RRIRRRPPRLPRPRPRPIKLPRP | -0.128
RRIRRRPPRLPRPRPRPILHPRP | -0.0819
RRIRRRPPRLPRPRPRPIMCPRP | 0.0545
RRIRRRPPRLPRPRPRPIMGPRP | -0.267
RRIRRRPPRLPRPRPRPIMRPRP | 0.277
RRIRRRPPRLPRPRPRPIPGPRP | 0.292
RRIRRRPPRLPRPRPRPIPKPRP | 0.0997
RRIRRRPPRLPRPRPRPIRAPRP | 0.266
RRIRRRPPRLPRPRPRPIRSPRP | 0.022
RRIRRRPPRLPRPRPRPISFPRP | -0.27
RRIRRRPPRLPRPRPRPISMPRP | 0.0655
RRIRRRPPRLPRPRPRPITPPRP | 0.243
RRIRRRPPRLPRPRPRPITTPRP | 0.032
RRIRRRPPRLPRPRPRPIWNPRP | 0.0946
RRIRRRPPRLPRPRPRPIWPPRP | 0.664
RRIRRRPPRLPRPRPRPIWTPRP | 0.181
RRIRRRPPRLPRPRPRPIYLPRP | -0.205
RRIRRRPPRLPRPRPRPKAIPRP | 0.111
RRIRRRPPRLPRPRPRPKCRPRP | 0.453
RRIRRRPPRLPRPRPRPKDTPRP | 0.0485

Sequence | shrunken log2 fold change
RRIRRRPPRLPRPRPRPKFMPRP | 0.122
RRIRRRPPRLPRPRPRPKFPPRP | 0.361
RRIRRRPPRLPRPRPRPKFYPRP | -0.102
RRIRRRPPRLPRPRPRPKGDPRP | 0.3
RRIRRRPPRLPRPRPRPKGQPRP | 0.176
RRIRRRPPRLPRPRPRPKHGPRP | -0.0664
RRIRRRPPRLPRPRPRPKHHPRP | 0.346
RRIRRRPPRLPRPRPRPKHRPRP | 0.376
RRIRRRPPRLPRPRPRPKHYPRP | 0.227
RRIRRRPPRLPRPRPRPKICPRP | 0.0561
RRIRRRPPRLPRPRPRPKIHPRP | 0.02
RRIRRRPPRLPRPRPRPKISPRP | 0.14
RRIRRRPPRLPRPRPRPKKFPRP | -0.205
RRIRRRPPRLPRPRPRPKKGPRP | 0.403
RRIRRRPPRLPRPRPRPKLCPRP | 0.333
RRIRRRPPRLPRPRPRPKNNPRP | -0.0641
RRIRRRPPRLPRPRPRPKPMPRP | 0.687
RRIRRRPPRLPRPRPRPKPPPRP | 0.735
RRIRRRPPRLPRPRPRPKQSPRP | 0.143
RRIRRRPPRLPRPRPRPKRDPRP | 0.5
RRIRRRPPRLPRPRPRPKRPPRP | 0.656
RRIRRRPPRLPRPRPRPKRTPRP | 0.759
RRIRRRPPRLPRPRPRPKSQPRP | 0.104
RRIRRRPPRLPRPRPRPKTEPRP | 0.452
RRIRRRPPRLPRPRPRPKWQPRP | -0.175

Sequence | shrunken log2 fold change
RRIRRRPPRLPRPRPRPKYIPRP | -0.135
RRIRRRPPRLPRPRPRPLAAPRP | 0.874
RRIRRRPPRLPRPRPRPLDDPRP | 0.0512
RRIRRRPPRLPRPRPRPLDEPRP | 0.632
RRIRRRPPRLPRPRPRPLEMPRP | 0.181
RRIRRRPPRLPRPRPRPLHYPRP | 0.239
RRIRRRPPRLPRPRPRPLKRPRP | 0.161
RRIRRRPPRLPRPRPRPLMKPRP | -0.12
RRIRRRPPRLPRPRPRPLMNPRP | 0.312
RRIRRRPPRLPRPRPRPLNGPRP | 0.112
RRIRRRPPRLPRPRPRPLNIPRP | -0.651
RRIRRRPPRLPRPRPRPLNMPRP | -0.126
RRIRRRPPRLPRPRPRPLSLPRP | -0.203
RRIRRRPPRLPRPRPRPLVIPRP | -0.0686
RRIRRRPPRLPRPRPRPLVPPRP | 0.175
RRIRRRPPRLPRPRPRPLWWPRP | 0.48
RRIRRRPPRLPRPRPRPMAFPRP | 0.024
RRIRRRPPRLPRPRPRPMARPRP | 0.0728
RRIRRRPPRLPRPRPRPMCEPRP | 0.516
RRIRRRPPRLPRPRPRPMCMPRP | -0.0115
RRIRRRPPRLPRPRPRPMDYPRP | 0.0716
RRIRRRPPRLPRPRPRPMENPRP | 0.113
RRIRRRPPRLPRPRPRPMEPPRP | 0.0257
RRIRRRPPRLPRPRPRPMFGPRP | -0.0512
RRIRRRPPRLPRPRPRPMHNPRP | 0.384

Sequence | shrunken log2 fold change
RRIRRRPPRLPRPRPRPMIYPRP | -0.305
RRIRRRPPRLPRPRPRPMKLPRP | -0.123
RRIRRRPPRLPRPRPRPMLKPRP | 0.0333
RRIRRRPPRLPRPRPRPMMDPRP | -0.00156
RRIRRRPPRLPRPRPRPMMMPRP | 0.0332
RRIRRRPPRLPRPRPRPMMSPRP | 0.0352
RRIRRRPPRLPRPRPRPMQSPRP | 0.0774
RRIRRRPPRLPRPRPRPMRDPRP | 0.62
RRIRRRPPRLPRPRPRPMRRPRP | 0.425
RRIRRRPPRLPRPRPRPMRVPRP | 0.93
RRIRRRPPRLPRPRPRPMSFPRP | -0.0277
RRIRRRPPRLPRPRPRPMSIPRP | -0.465
RRIRRRPPRLPRPRPRPMTRPRP | 0.315
RRIRRRPPRLPRPRPRPMTVPRP | -0.238
RRIRRRPPRLPRPRPRPMVGPRP | 0.397
RRIRRRPPRLPRPRPRPMWHPRP | -0.03
RRIRRRPPRLPRPRPRPMWSPRP | 0.311
RRIRRRPPRLPRPRPRPMYAPRP | 0.148
RRIRRRPPRLPRPRPRPMYMPRP | -0.212
RRIRRRPPRLPRPRPRPMYVPRP | -0.203
RRIRRRPPRLPRPRPRPNAHPRP | 0.0582
RRIRRRPPRLPRPRPRPNCTPRP | 0.00402
RRIRRRPPRLPRPRPRPNCVPRP | 0.245
RRIRRRPPRLPRPRPRPNELPRP | 0.457
RRIRRRPPRLPRPRPRPNERPRP | -0.0664
